Data: paper PMC5626966, “Molecular and Physiological Logics of the Pyruvate-Induced Response of a Novel Transporter in Bacillus subtilis” (mBio, 2017)

Key:
[1] = target: T1, LytT (His6-LytT) (Bacillus subtilis (168?)) (UniProt P94514); assay: EMSA; details: EMSA: LytT with 50 ng DNA and 50 µg/ml poly(dI-dC); CcpA with 10 ng DNA and 400 µg/ml salmon sperm DNA; 6% or 8% native acrylamide gel in TAE; binding buffer …
T1 sequence: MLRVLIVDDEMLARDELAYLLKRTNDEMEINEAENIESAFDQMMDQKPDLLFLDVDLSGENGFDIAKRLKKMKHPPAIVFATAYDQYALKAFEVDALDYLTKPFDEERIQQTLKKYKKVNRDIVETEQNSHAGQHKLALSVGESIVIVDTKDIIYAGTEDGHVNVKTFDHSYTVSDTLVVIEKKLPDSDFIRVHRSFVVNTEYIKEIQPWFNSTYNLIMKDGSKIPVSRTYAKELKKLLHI

[2] = target: T2, PftAB (YsbAB) pyruvate-facilitated transporter (Bacillus subtilis, UniProt P94515+P94516); assay: transport in growing cells, extracellular pyruvate by HPLC, fit of facilitated transport model; format: cell-based; details: B. subtilis cells, M9 minimal medium; model estimate of facilitated transport (Text S1, Table S2)
T2 construct: gene lrgA; full-length untagged pftAB in B. subtilis cells (WT, delta-pftAB, IPTG-inducible Phs-pftAB strains)
T2 sequence (P94515 whole entry): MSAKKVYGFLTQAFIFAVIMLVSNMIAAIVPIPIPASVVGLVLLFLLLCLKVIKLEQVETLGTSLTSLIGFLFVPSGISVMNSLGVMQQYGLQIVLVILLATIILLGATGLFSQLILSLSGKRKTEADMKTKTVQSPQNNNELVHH
T2 sequence (P94516 whole entry): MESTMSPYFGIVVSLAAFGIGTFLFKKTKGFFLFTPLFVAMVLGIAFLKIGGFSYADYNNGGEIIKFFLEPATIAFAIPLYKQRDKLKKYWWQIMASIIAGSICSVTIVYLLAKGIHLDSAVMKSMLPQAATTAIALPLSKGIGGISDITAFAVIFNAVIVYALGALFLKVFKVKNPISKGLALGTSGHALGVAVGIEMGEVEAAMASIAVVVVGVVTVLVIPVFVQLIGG

| Km (apparent affinity constant) [2] | Compound | binding [1] |
| --- | --- | --- |
| – | CCATGGTTTAATTCAACGTATAATCTGATCATGAAAGACGGATCGAAAATACCGGTCAGCCGGACATATGCGAAGGAATTGAAAAAGCTGCTCCATATTTGATGGGCGGCTTTTTGCATTTCAGCCATTTGATTCTGCAACTCAGACCCGCTATACGGCATGTTATCTTGTAAGCGCTTTATAACAGGGAATTCTTATTTATAATGAGGGTACCAAAGAGAAAGAGGTGAAGAAAATGAGTGCTAAAAAAGTGTACG (double strand) [PpftAB 257 bp] | binds |
| ~ 1.0 ± 0.1 mmol ⋅ liter^−1 | CC(=O)C(=O)O [pyruvate] | – |
| – | CCATGGTTTAATTCAACGTATAATCTGATCATGAAAGACGGATCGAAAATACCGGTCAGCCGGACATATGCGAAGGAATTGAAAAAGCTGCTCCATATTTGATGGGCGGCTTTTTGCATTTCAGCCATTTGATTCTGCAACTCAGACCCGCTATACGGCATGTTATCTTGTAAGCGCTTTATAACAGGGAATTCTTATTTATAATGAGGGTACCAAAGAGAAAGAGGTGAAGAAAATGAGTGCTAAAAAAGTGTACG (double strand) [PpftAB reporter strain fragment 267 bp] | binds |
